Test results from patent US20260159561A1 (MyNeuroCure Oy, priority 2017, published 2026).

Experiments:
SOD1-G93A mice [1] = experiment: SOD1-G93A mouse ALS model, 4-week chronic intracerebroventricular infusion; format: in vivo; settings: i.c.v. infusion 1.5 μg/24 h for 4 weeks, vs PBS
Text: (§1) Transgenic SOD1 G93A mice served as a transgenic mouse model for ALS in this study. Transgenic mice containing various human SOD1 mutations develop progressive neurodegeneration and motoneuron (MN) death, providing an animal model that has been commonly used for preclinical trials and that has greatly contributed to the understanding of FALS pathogenesis (Gurney et al., 1994). […] In these mice hind limb weakness and tremulous movement appear as initial symptoms at 8-10 week of age, followed by major symptoms such as progressive motor paralysis and neurogenic amyotrophy (Shibata 2001). […] Transgenic expression was analyzed by DNA tail tests and PCR, using specific oligonucleotides and conditions as done previously by others (see homepage Jackson Lab). […]
In the chronic infusion experiment, 12-week-old SOD1 mice were inserted a brain infusion cannula (connected via catheter-tubing to an Alzet osmotic minipump) to the right lateral ventricle under isoflurane anesthesia. […] Motor behavior was evaluated with rotarod. Mice were evaluated for clinical signs and body weight changes.
(§2) Clinical scoring for SOD1 mice was done using instructions from Jackson laboratory. […] Animals were scored by lifting them gently by the base of their tails and observing them for tremors, stiffness and their ability to extend their limbs. […]

[2] = tested on: ER stressed superior cervical ganglia (SCG) sympathetic neurons; experiment: Survival of tunicamycin ER-stressed SCG neurons microinjected with expression plasmids; format: cell-based, mouse; settings: expressed from microinjected plasmids; tunicamycin 2 μM; counted after three days
Protocol: Non-neuronal cells were removed by extensive preplating. Almost pure neurons were cultured in polyornithine/laminin (Sigma)-coated 35-mm plastic dishes in the small-size standard microislands in the Neurobasal medium and B27 supplement (Invitrogen/Gibco) in the presence of 30 ng/ml mouse nerve growth factor (NGF) (Promega) for 5-6 days. NGF was deprived by extensive washing and addition of the function-blocking anti-NGF antibodies (Roche). The neurons were pressure-microinjected with special neuronal microinjection equipment (Hellman et al., 2011; Hamner et al., 2001; Lindholm et al., 2002; Sun et al., 2001; Yu et al., 2003)(Sun et al., 2001; Sun et al., 2003). For the survival assay, all neurons on the microislands were counted in the beginning (initial number) and the end (three days) of the experiment and expressed as % of initial.
Microinjection of the sympathetic neurons was performed as described earlier (Yu, L. Y., Jokitalo, E., Sun, Y. F., Mehlen, P., Lindholm, D., Saarma, M., and Arumäe, U. (2003) J. Cell Biol. 163, 987-997). […] Next day tunicamycin (2 μM) was added, and after 3 days the living fluorescent neurons were counted. Living fluorescent (EGFP-expressing or Dextran Texas Red-containing) neurons were “blindly” counted three days later and expressed as percent of initial living fluorescent neurons counted 2-3 hours after microinjection. […]

[3] = rat, in vivo, sc
Protocol: ^125I-CDNF, ^125I C-CDNF or ^125I C-MANF (all proteins at 106 cpm in 10 μl) were injected subcutaneously to adult male Wistar rats. Animals were perfused with PBS 2 hours later. Radioactivity was analyzed in different brain regions by gamma counter. Data are shown as mean±SEM. The differences between groups were analyzed ANOVA followed by Tukey-Kramers post hoc test.

dopaminergic neurons = experiment: Survival of TH-positive dopaminergic neurons in midbrain cultures; format: cell-based; settings: added to culture medium, 5 days, E13/E13.5 NMRI mouse midbrain floors
Protocol: To study the dopamine neurons (Yu et al., 2008; Yu and Arumae, 2008), the midbrain floors were dissected from the ventral mesencephali of 13.5-d-old NMRI strain mouse embryos. Tissues were incubated with 0.5% trypsin (ICN Biomedical), then mechanically dissociated using a large fire-polished Pasteur pipette. […] Same amount of the neurons were plated to each well at the beginning of the experiments. The cultures without added neurotrophic factors served as the negative control. As the midbrain cultures contain several neuronal types, the cultures were fixed and immunostained with the antibodies to tyrosine hydroxylase (TH) (Millipore), a specific marker for the dopaminergic neurons. Images of each well were scanned by CellInsight™ and immunopositive neurons were counted by CellProfiler and CellProfiler analyst software. Data are expressed as a percentage of GDNF-maintained TH-positive neurons. All experiments were repeated at least three times on the independent cultures. The results were expressed as the mean the SEM and were tested for the significance by either one-way ANOVA and Tukey's post hoc test or by two-tailed Student's t-test. The null hypothesis was rejected at P<0.05.

[4] = tested on: rat model of cerebral ischemia
Protocol: Male Sprague Dawley rats (weight 230-270 g, Envigo, Netherlands) were used for the experiments which were conducted according to the 3R principles of EU directive 2010/63/EU on the care and use of experimental animals, local laws and regulations, and were approved by the national Animal Experiment Board of Finland All experiments were performed in a blinded manner and the rats were assigned to different treatment groups randomly. Rats were anesthesized with chloral hydrate (0.4 g/kg, i.p). […] Briefly, the bilateral CCAs were identified and isolated through a ventral midline cervical incision. Rats were placed in stereotaxic apparatus and a craniotomy was made in the right hemisphere. The right (MCA) was ligated with a 10-0 suture and bilateral common carotids (CCA) were ligated with non-traumatic arterial clamps for 60 minutes. After sixty minutes of ischemia, the suture around the MCA and arterial clips on CCAs were removed to introduce a reperfusional injury. After recovery from anesthesia, the rats were returned to their home cage. Body temperatures during and after surgery were maintained at 37° C.
To test the neuroprotective effect of subcutaneous C-CDNF, 50 μg of C-CDNF was given 30-50 min before dMCA occlusion and immediately after reperfusion in volume of 100 μl s.c. Phosphate-buffered saline (PBS) was used as vehicle control. The rats were euthanized 2 days after dMCAo to measure the infarction volume by 2% 2,3,5-triphenyltetrazolium chloride (TTC; Sigma Aldrich, St. Louis, MO) staining. Rats were decapitated and the brains were removed and sliced into 2.0-mm-thick sections using an acrylic rat brain block. The brain slices were incubated in a 2% TTC solution (Sigma, St. Louis, MO, USA) for 15 min at room temperature and then transferred into a 4% paraformaldehyde solution for fixation. The area of infarction in each slice was measured with a digital scanner and ImageJ software. The volume of infarction in each animal was obtained from the product of average slice thickness (2 mm) and sum of infarction areas in rostral brain slices examined. […]

SOD1-G93A mice [5] = experiment: SOD1-G93A mouse ALS model, single intracerebroventricular injection; format: in vivo; settings: females, vs PBS
Text: as §1, with “2001). These mice subsequently show disability of gait, eating and drinking and die within some weeks, usually at 14-16 week of age.” for “2001).”
Mice were then evaluated for signs of disease and body weight changes twice a week. […]
as §2

B1: C-CDNF: Human C-CDNF, SEQ ID NO: 4: C-terminal domain of mature CDNF, amino acid 101 to 161; recombinant, Histidine tag at C-terminus (protein, listed as Homo sapiens)
chain: KYEKTLDLASVDLRKMRVAELKQILHSWGEECRACAEKTDYVNLIQELAPKYAATHPKTEL
rotarod performance (motor coordination) (SOD1-G93A mice [1]; significant week 13 until week 19): improves motor coordination
relative changes in body weight (SOD1-G93A mice [1]; weeks 18 and 19): Significant differences between treatments in body weight
living fluorescent neurons, percentage of initial neurons [2]: rescue ER stressed superior cervical ganglia (SCG) sympathetic neurons
blood-brain-barrier penetration (radioactivity in brain) [3]: capable of penetrating neuronal cell membrane as well as the blood-brain-barrier
TH-positive neurons, percentage of GDNF-maintained neurons (dopaminergic neurons): protects dopaminergic neurons in vitro
infarction volume ([4]; 50 μg s.c. before dMCA occlusion and after reperfusion, rostral part of cerebral cortex, 2 days after dMCAo): decreases the infarction volume
lesion size, smaller than in vehicle treated rats ([4]; 50 μg s.c. before occlusion and after reperfusion, vs PBS): about 50%
blood pressure and heart rate ([4]; rat, in vivo): does not affect blood pressure and heart rate
clinical score (SOD1-G93A mice [5]; single i.c.v. 3.75 μg at 13 weeks of age): statistically significantly better clinical scores
rotarod latency to fall (SOD1-G93A mice [5]; single i.c.v. 3.75 μg, 4-40 rpm, cut-off 4 min): improves the motor behavior
